The assay addresses PI3KC3 complex II (PI3KC3-C2): VPS34, VPS15, BECN1, UVRAG (human) (UniProt Q8NEB9).

Sequence of UniProt Q8NEB9 (Q8NEB9 whole entry, chain 1 of 4): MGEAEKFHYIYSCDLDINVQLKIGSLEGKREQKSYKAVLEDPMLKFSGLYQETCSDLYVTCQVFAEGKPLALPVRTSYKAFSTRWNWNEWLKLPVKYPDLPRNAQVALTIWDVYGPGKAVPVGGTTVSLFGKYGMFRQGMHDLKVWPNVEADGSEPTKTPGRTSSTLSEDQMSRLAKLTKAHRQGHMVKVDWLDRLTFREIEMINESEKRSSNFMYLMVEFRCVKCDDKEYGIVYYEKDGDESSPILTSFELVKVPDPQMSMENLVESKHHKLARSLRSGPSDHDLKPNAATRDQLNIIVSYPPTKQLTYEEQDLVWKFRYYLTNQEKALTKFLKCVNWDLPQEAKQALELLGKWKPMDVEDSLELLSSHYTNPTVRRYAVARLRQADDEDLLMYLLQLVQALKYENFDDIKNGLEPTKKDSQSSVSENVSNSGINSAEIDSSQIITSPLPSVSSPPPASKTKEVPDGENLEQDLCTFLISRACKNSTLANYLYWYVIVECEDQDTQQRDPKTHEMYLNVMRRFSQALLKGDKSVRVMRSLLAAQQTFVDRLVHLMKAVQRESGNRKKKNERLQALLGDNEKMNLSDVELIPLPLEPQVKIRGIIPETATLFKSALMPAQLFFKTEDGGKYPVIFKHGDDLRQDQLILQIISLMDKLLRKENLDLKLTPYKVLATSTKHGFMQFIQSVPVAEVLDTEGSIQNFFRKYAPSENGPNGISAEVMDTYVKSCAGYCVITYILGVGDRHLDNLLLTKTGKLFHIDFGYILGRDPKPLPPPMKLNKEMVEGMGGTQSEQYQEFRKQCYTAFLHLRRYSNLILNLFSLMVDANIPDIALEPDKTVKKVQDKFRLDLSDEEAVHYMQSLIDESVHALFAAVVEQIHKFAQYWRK
Sequence of UniProt Q8NEB9 (Q99570 whole entry, chain 2 of 4, further chain): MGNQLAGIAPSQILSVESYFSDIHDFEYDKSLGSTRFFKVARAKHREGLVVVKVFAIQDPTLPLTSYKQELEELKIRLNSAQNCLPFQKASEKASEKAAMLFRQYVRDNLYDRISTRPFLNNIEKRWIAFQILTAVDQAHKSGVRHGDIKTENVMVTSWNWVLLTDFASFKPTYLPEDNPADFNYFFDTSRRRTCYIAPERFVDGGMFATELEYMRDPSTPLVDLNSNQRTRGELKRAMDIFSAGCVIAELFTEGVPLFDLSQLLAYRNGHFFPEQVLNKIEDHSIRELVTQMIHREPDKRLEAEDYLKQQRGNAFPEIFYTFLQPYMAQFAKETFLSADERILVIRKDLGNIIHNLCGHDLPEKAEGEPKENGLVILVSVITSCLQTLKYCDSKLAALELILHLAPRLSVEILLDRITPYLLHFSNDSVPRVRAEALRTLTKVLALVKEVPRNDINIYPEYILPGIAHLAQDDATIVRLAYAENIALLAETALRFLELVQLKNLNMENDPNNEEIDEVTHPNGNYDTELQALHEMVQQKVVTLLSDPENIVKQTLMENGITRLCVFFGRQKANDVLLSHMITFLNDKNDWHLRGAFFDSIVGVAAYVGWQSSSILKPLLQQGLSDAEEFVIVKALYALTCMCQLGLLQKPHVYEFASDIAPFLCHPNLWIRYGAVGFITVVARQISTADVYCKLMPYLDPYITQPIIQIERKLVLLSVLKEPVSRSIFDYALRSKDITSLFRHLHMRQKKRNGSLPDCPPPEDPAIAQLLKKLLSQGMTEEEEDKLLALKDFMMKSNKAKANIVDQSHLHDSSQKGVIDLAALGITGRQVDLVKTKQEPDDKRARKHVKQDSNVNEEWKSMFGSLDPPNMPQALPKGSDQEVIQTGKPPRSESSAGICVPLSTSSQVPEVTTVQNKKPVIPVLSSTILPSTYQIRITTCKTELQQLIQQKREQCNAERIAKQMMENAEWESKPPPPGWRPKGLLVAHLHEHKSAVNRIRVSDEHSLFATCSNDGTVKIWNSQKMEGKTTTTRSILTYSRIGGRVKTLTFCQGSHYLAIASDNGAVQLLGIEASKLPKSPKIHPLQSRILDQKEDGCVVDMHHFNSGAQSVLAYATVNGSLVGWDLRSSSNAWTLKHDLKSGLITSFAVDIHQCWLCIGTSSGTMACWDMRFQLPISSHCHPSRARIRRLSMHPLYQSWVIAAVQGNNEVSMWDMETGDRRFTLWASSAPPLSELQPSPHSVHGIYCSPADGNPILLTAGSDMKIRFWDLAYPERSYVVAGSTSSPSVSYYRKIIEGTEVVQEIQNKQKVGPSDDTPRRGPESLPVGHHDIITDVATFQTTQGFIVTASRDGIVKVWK
Sequence of UniProt Q8NEB9 (Q14457 whole entry, chain 3 of 4, further chain): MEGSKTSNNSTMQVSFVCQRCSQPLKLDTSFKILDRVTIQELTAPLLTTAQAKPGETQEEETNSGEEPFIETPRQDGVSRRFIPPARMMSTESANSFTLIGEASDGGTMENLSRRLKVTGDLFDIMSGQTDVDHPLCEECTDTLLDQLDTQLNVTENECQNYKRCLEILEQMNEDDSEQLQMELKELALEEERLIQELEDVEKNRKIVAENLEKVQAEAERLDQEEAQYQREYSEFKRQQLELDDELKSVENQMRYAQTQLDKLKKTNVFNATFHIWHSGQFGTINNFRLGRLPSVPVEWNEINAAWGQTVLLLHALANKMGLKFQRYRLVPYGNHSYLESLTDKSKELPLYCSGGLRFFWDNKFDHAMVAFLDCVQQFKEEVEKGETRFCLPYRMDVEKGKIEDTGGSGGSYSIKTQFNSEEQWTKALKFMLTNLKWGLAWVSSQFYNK
Sequence of UniProt Q8NEB9 (Q9P2Y5 whole entry, chain 4 of 4, further chain): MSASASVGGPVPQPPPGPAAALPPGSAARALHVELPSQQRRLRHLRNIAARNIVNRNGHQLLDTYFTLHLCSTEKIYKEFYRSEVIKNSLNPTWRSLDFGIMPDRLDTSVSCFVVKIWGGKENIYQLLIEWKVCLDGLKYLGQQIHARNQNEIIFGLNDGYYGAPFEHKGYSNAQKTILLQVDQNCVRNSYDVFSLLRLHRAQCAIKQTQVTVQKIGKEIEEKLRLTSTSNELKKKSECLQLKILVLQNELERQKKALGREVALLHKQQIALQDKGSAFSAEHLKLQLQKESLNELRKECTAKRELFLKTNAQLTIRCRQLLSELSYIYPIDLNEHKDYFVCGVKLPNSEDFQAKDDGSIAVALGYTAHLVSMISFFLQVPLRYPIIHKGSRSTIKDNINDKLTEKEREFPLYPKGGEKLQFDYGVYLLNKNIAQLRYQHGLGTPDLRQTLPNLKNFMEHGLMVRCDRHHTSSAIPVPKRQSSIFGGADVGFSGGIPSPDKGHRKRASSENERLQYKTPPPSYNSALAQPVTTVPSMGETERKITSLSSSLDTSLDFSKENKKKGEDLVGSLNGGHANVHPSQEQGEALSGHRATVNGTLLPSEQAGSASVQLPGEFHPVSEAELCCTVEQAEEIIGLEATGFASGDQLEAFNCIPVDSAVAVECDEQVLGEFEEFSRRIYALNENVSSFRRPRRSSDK

Substance “MBP tagged Rubicon MR (middle region) (from UniProt Q92622 1-972) (domain or fragment)” yielded a PI3KC3-C2 lipid kinase activity on SUVs (ADP-Glo), complexes at 12.5 nM of 2 fold.

“MBP tagged Rubicon PIKBD (PI3KC3-C2 binding domain) (from UniProt Q92622 1-972) (domain or fragment)” gave a PI3KC3-C2 lipid kinase activity on SUVs (ADP-Glo), complexes at 12.5 nM of 2 fold.

(Values after article PMC6450660.)
